From patent US20260125455A1 (CLEVELAND CLINIC FOUNDATION, published 2026)

What was measured:
[1] = biological target: T1, human complement protein C6 (human, UniProt P13671 22-934); experiment: BLI (Octet), full kinetics, C6 0.16-10 nM, 1:1 fit
T1 construct: also called human C6; C6 antigen
Experimental: For two of the best performing antibodies, C601HFKC4 HuG4K (aka 3713) and C601HFKI HuG4K, a full kinetic experiment was run using seven concentrations of C6 (0.16-10 nM) and association and dissociation steps of 20 min. The datasets were processed by subtracting the no antigen controls and the data were fitted to a 1:1 binding model. Binding curves giving Req/Rₘₐₓ ratios>90% or showing poor fitting were excluded from analysis.

[2] = biological target: T1, human complement protein C6; experiment: C6-binding ELISA, A650 nm; sample 'C6-depleted human serum' (28 days at 37 C)
Experimental: (§1) For the serum stability assessment, samples of the purified candidate antibodies are normally incubated in mouse, human and cynomolgus serum at 37 C for 28 days and then tested in an antigen-binding ELISA. Since the anti-C6 antibodies are expected to bind to both human and cynomolgus C6 but not mouse C6, we anticipated that incubating in human or cynomolgus sera would reduce ELISA binding due to occupation of the antibody binding sites by C6 protein from the sera. Therefore, the chimeric and humanized antibodies were tested with human and mouse sera and with human sera from which the C6 protein has been depleted. The C6-binding ELISA was then used to compare the binding abilities of the C601 antibodies that had been incubated in the 3 different sera to antibody samples that were incubated in PBS at 37 C or kept at 4 C (non-incubated).
(§2) The Uncle instrument (Unchained Labs) was used to monitor unfolding via intrinsic fluorescence and aggregation by static light scattering across a temperature gradient to obtain melting temperatures (Tₘ). […] Isoelectric points were determined by capillary isoelectric focusing using a PA800+ (Beckman Coulter). […]

[3] = biological target: T1, human complement protein C6; experiment: C6-binding ELISA, A650 nm; sample 'PBS, non-incubated' (kept at 4 C)
Experimental: The C6-binding ELISA was then used to compare the binding abilities of the C601 antibodies that had been incubated in the 3 different sera to antibody samples that were incubated in PBS at 37 C or kept at 4 C (non-incubated).
Binding ELISAs used Nunc Maxisorp 384-well plates, wells coated with C6, C5b,6 complex or C5 (Complement Technology Inc, TX) and goat anti-human IgG (Fab specific) peroxidase secondary antibodies (Sigma-Aldrich, A0293) for detection. For the thermal stability assay, IgG supernatants were diluted to their EC₈₀ concentration, incubated at different temperatures for 10 min and C6 binding measured by ELISA with the binding signal plotted against temperature. Kinetics of C6 binding were measured by capturing antibodies from supernatant samples using Protein G biosensors and performing a 20 min association step with 2.5 nM C6 and a 20 min dissociation step using the Octet RED96. […] Binding of C6 measured using a three-fold concentration series of C6 from 0.03 nM-25 nM and data were fitted using a 1:1 model in two independent experiments.
The Uncle instrument (Unchained Labs) was used to monitor unfolding via intrinsic fluorescence and aggregation by static light scattering across a temperature gradient to obtain melting temperatures (Tₘ). […] Isoelectric points were determined by capillary isoelectric focusing using a PA800+ (Beckman Coulter).

[4] = biological target: T1, human complement protein C6; experiment: as above; remark: listed apart in the source
Experimental: as §1, §2

[5] = biological target: T1, human complement protein C6; experiment: C6-binding ELISA, A650 nm; sample 'C6-depleted human serum' (28 days at 37 C); remark: listed apart in the source
Experimental: as §1, with “The C6-binding ELISA was then used to compare the binding abilities of the C601 antibodies that had been incubated in the 3 different sera to antibody samples that were incubated in PBS at 37 C or kept at 4 C (non-incubated).” left out
Binding ELISAs used Nunc Maxisorp 384-well plates, wells coated with C6, C5b,6 complex or C5 (Complement Technology Inc, TX) and goat anti-human IgG (Fab specific) peroxidase secondary antibodies (Sigma-Aldrich, A0293) for detection. For the thermal stability assay, IgG supernatants were diluted to their EC₈₀ concentration, incubated at different temperatures for 10 min and C6 binding measured by ELISA with the binding signal plotted against temperature. Kinetics of C6 binding were measured by capturing antibodies from supernatant samples using Protein G biosensors and performing a 20 min association step with 2.5 nM C6 and a 20 min dissociation step using the Octet RED96. […]

[6] = biological target: T1, human complement protein C6; experiment: ELISA, expression supernatant, anti-human kappa detection
Experimental: The chimeric molecules, MoC601 HuG4K and MoC601 HuG1KFab, were tested for C6 binding in the form of expression supernatants. In this experiment, the human molecules were detected with an HRP-conjugated goat anti-human kappa chain reagent, which gave relative low signals. However, the binding of both chimeric molecules to C6 was confirmed. The EC₅₀ value for MoC601 HuG4K (0.43 nM) was higher than that of the mouse antibody (0.07 nM), though this was lower than in previous experiments. A further experiment was performed to find a more suitable anti-human antibody detection reagent. MoC601 HuG4K from expression supernatant was detected with three different secondary antibodies. Both anti-human IgG Fc-specific and Fab-specific detection gave higher signals than the anti-kappa chain reagent but the Fc-specific detection yielded a very low EC₅₀ (0.03 nM).

T1 sequence (P13671 22-934 limits assumed): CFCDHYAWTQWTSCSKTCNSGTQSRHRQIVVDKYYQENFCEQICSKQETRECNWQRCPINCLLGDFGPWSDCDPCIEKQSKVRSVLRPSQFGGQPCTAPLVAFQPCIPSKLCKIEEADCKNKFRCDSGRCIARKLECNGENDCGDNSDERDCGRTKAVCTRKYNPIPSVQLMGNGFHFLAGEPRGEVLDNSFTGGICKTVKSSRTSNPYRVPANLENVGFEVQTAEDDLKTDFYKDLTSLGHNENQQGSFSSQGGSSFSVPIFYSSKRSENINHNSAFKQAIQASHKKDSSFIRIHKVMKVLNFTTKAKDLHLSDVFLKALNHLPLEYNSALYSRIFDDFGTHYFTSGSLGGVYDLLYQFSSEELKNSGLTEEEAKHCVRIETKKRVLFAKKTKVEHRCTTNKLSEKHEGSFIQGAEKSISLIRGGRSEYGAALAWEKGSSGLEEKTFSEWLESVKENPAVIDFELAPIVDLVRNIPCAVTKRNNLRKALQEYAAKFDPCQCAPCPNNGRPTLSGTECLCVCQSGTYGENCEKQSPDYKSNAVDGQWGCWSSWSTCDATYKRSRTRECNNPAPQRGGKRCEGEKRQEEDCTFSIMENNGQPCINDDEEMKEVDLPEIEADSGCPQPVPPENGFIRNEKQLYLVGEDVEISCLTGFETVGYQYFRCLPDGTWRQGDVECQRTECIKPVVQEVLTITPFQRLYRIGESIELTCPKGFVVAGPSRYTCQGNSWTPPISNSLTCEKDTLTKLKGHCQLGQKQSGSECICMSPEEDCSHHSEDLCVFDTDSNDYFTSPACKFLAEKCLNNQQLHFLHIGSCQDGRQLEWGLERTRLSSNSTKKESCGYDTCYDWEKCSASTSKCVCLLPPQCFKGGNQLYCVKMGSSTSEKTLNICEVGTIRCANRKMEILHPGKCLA

B1: C601HFKC4 HuG4K (antibody, human IgG4 S228P, kappa)
heavy: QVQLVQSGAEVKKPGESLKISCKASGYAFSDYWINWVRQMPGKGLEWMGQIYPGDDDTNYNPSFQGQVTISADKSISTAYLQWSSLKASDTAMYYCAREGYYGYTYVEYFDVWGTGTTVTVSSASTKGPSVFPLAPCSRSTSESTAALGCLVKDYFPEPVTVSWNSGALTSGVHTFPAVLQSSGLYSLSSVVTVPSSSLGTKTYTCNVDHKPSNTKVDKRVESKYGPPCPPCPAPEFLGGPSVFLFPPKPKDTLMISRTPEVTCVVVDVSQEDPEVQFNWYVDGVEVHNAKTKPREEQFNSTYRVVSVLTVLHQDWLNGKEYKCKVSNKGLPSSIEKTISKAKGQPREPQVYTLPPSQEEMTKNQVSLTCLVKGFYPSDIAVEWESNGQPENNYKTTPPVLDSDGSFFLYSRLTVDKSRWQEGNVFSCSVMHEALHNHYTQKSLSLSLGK
light: QIVLTQSPATLSLSPGERATLSCRASSSVSYLHWYQQKPGQSPRLWIYDTSKRATGIPARFSGSGSGTDYTLTISSLEPEDFAVYYCQQWTSNPLTFGQGTKLEIKRTVAAPSVFIFPPSDEQLKSGTASVVCLLNNFYPREAKVQWKVDNALQSGNSQESVTEQDSKDSTYSLSSTLTLSKADYEKHKVYACEVTHQGLSSPVTKSFNRGEC
notes: also called 3713; clone 3713
[1]
  Kd: 0.11 nM
  koff: 0.00013 s⁻¹
  kon: 1.19e+06 M⁻¹ s⁻¹
[2]
  EC50: 0.17 nM
[3]
  EC50: 0.17 nM

B2: MoC601 HuG4K (chimeric C601 antibody) (antibody, human IgG4 S228P, kappa, V domains shown)
VH: QVQLQQSGAELVKPGASVKISCKASGYAFSDYWMNWVKQRPGKGLEWIGQIYPGDDDTNYNGKFKGKATLTADKSSSTAYMQLSSLTSEDSAVYFCAREGYYGYTYVEYFDVWGTGTTVTVSS
VL: QIVLTQSPAIMSVSPGEKVTLTCSASSSVSYMHWYQQKSGTSPKRWIYDTSKLASGVPARFSGSGSGTSYSLTISSMEAEDAATYYCQQWTSNPLTFGAGTKLELRR
notes: also called chimeric antibody; chimeric 1C9
[4]
  EC50: 0.18 nM
[5]
  EC50: 0.15 nM
[6]
  EC50: 0.43 nM
